This note sets out measurements from US20190153061A1.

The assay concerns the target B-cell maturation antigen (BCMA) expressed on cells (human), Q02223. In words: cell-based or functional assay.

Sequence of B-cell maturation antigen (BCMA) expressed on cells (human), Q02223 (Q02223 whole entry): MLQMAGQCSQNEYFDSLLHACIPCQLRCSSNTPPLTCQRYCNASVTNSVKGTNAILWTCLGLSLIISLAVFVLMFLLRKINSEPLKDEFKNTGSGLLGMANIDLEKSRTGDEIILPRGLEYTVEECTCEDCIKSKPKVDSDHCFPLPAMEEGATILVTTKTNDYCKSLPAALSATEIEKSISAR

B1: BCMA-13 CAR (139112) (protein)
chain: QVQLVESGGGLVQPGGSLRLSCAVSGFALSNHGMSWVRRAPGKGLEWVSGIVYSGSTYYAASVKGRFTISRDNSRNTLYLQMNSLRPEDTAIYYCSAHGGESDVWGQGTTVTVSSASGGGGSGGRASGGGGSDIRLTQSPSPLSASVGDRVTITCQASEDINKFLNWYHQTPGKAPKLLIYDASTLQTGVPSRFSGSGSGTDFTLTINSLQPEDIGTYYCQQYESLPLTFGGGTKVEIKTTTPAPRPPTPAPTIASQPLSLRPEACRPAAGGAVHTRGLDFACDIYIWAPLAGTCGVLLLSLVITLYCKRGRKKLLYIFKQPFMRPVQTTQEEDGCSCRFPEEEEGGCELRVKFSRSADAPAYKQGQNQLYNELNLGRREEYDVLDKRRGRDPEMGGKPRRKNPQEGLYNELQKDKMAEAYSEIGMKGERRRGKGHDGLYQGLSTATKDTYDALHMQALPPR
For B1, the Cell killing EC50; KMS11-luc turned out to be 0.11 not printed; the JNL binding assay, ratio to K562; K562-BCMA was found to be 3.74; the JNL binding assay, ratio to K562; NCI-H929 is 2.68; the JNL binding assay, ratio to K562; RPMI 8226 is 3.66. The Proliferation, CD3 ratio to no target; K562-BCMA was 3.47; the Proliferation, CD3 ratio to no target; KMS11-luc was determined as 3.2; the Proliferation, CD3 ratio to no target; NCI-H929 worked out at 3.46; the Proliferation, CD3 ratio to no target; RPMI 8226 came to 3.48. The Proliferation, CD4 ratio to no target; K562-BCMA turned out to be 5.4; the Proliferation, CD4 ratio to no target; KMS11-luc came out at 3.84; the Proliferation, CD4 ratio to no target; NCI-H929 is 5.05; the Proliferation, CD4 ratio to no target; RPMI 8226 is 4.44. The Proliferation, CD8 ratio to no target; K562-BCMA came to 2.34; the Proliferation, CD8 ratio to no target; KMS11-luc is 2.79; the Proliferation, CD8 ratio to no target; NCI-H929 was 2.53; the Proliferation, CD8 ratio to no target; RPMI 8226 worked out at 2.86.

B2: BCMA-8 CAR (139107) (protein)
chain: EVQLVETGGGVVQPGGSLRLSCAVSGFALSNHGMSWVRRAPGKGLEWVSGIVYSGSTYYAASVKGRFTISRDNSRNTLYLQMNSLRPEDTAIYYCSAHGGESDVWGQGTTVTVSSASGGGGSGGRASGGGGSEIVLTQSPGTLSLSPGERATLSCRASQSVGSTNLAWYQQKPGQAPRLLIYDASNRATGIPDRFSGGGSGTDFTLTISRLEPEDFAVYYCQQYGSSPPWTFGQGTKVEIKTTTPAPRPPTPAPTIASQPLSLRPEACRPAAGGAVHTRGLDFACDIYIWAPLAGTCGVLLLSLVITLYCKRGRKKLLYIFKQPFMRPVQTTQEEDGCSCRFPEEEEGGCELRVKFSRSADAPAYKQGQNQLYNELNLGRREEYDVLDKRRGRDPEMGGKPRRKNPQEGLYNELQKDKMAEAYSEIGMKGERRRGKGHDGLYQGLSTATKDTYDALHMQALPPR
On to B2, for which the Cell killing EC50; KMS11-luc stood at 0.14 not printed; the JNL binding assay, ratio to K562; K562-BCMA was determined as 3.17; the JNL binding assay, ratio to K562; NCI-H929 worked out at 2.67; the JNL binding assay, ratio to K562; RPMI 8226 was 3.87. The Proliferation, CD3 ratio to no target; K562-BCMA worked out at 2.55; the Proliferation, CD3 ratio to no target; KMS11-luc was 2.46; the Proliferation, CD3 ratio to no target; NCI-H929 was determined as 2.17; the Proliferation, CD3 ratio to no target; RPMI 8226 was found to be 2.56. Also, the Proliferation, CD4 ratio to no target; K562-BCMA turned out to be 3.59; the Proliferation, CD4 ratio to no target; KMS11-luc turned out to be 3.11; the Proliferation, CD4 ratio to no target; NCI-H929 was determined as 2.98; the Proliferation, CD4 ratio to no target; RPMI 8226 was found to be 3.33. Further, the Proliferation, CD8 ratio to no target; K562-BCMA came to 1.59; the Proliferation, CD8 ratio to no target; KMS11-luc came to 1.83; the Proliferation, CD8 ratio to no target; NCI-H929 stood at 1.41; the Proliferation, CD8 ratio to no target; RPMI 8226 was determined as 1.81.

B3: BCMA-12 CAR (139111) (protein)
chain: EVQLLESGGGLVQPGGSLRLSCAVSGFALSNHGMSWVRRAPGKGLEWVSGIVYSGSTYYAASVKGRFTISRDNSRNTLYLQMNSLRPEDTAIYYCSAHGGESDVWGQGTTVTVSSASGGGGSGGRASGGGGSDIVMTQTPLSLSVTPGQPASISCKSSQSLLRNDGKTPLYWYLQKAGQPPQLLIYEVSNRFSGVPDRFSGSGSGTDFTLKISRVEAEDVGAYYCMQNIQFPSFGGGTKLEIKTTTPAPRPPTPAPTIASQPLSLRPEACRPAAGGAVHTRGLDFACDIYIWAPLAGTCGVLLLSLVITLYCKRGRKKLLYIFKQPFMRPVQTTQEEDGCSCRFPEEEEGGCELRVKFSRSADAPAYKQGQNQLYNELNLGRREEYDVLDKRRGRDPEMGGKPRRKNPQEGLYNELQKDKMAEAYSEIGMKGERRRGKGHDGLYQGLSTATKDTYDALHMQALPPR
In the case of B3, the Cell killing EC50; KMS11-luc was determined as 0.22 not printed; the JNL binding assay, ratio to K562; K562-BCMA worked out at 3.17; the JNL binding assay, ratio to K562; NCI-H929 worked out at 2.78; the JNL binding assay, ratio to K562; RPMI 8226 amounted to 3.36. The Proliferation, CD3 ratio to no target; K562-BCMA stood at 2.9; the Proliferation, CD3 ratio to no target; KMS11-luc was determined as 2.76; the Proliferation, CD3 ratio to no target; NCI-H929 worked out at 2.98; the Proliferation, CD3 ratio to no target; RPMI 8226 came to 3.27. For the same molecule, the Proliferation, CD4 ratio to no target; K562-BCMA was found to be 3.42; the Proliferation, CD4 ratio to no target; KMS11-luc came out at 2.94; the Proliferation, CD4 ratio to no target; NCI-H929 turned out to be 3.41; the Proliferation, CD4 ratio to no target; RPMI 8226 was 3.66. Besides, the Proliferation, CD8 ratio to no target; K562-BCMA came to 1.51; the Proliferation, CD8 ratio to no target; KMS11-luc is 2.11; the Proliferation, CD8 ratio to no target; NCI-H929 was 1.76; the Proliferation, CD8 ratio to no target; RPMI 8226 was found to be 2.12.

B4: BCMA-9 CAR (139108) (protein)
chain: QVQLVESGGGLVKPGGSLRLSCAASGFTFSDYYMSWIRQAPGKGLEWVSYISSSGSTIYYADSVKGRFTISRDNAKNSLYLQMNSLRAEDTAVYYCARESGDGMDVWGQGTTVTVSSASGGGGSGGRASGGGGSDIQMTQSPSSLSASVGDRVTITCRASQSISSYLNWYQQKPGKAPKLLIYAASSLQSGVPSRFSGSGSGTDFTLTISSLQPEDFATYYCQQSYTLAFGQGTKVDIKTTTPAPRPPTPAPTIASQPLSLRPEACRPAAGGAVHTRGLDFACDIYIWAPLAGTCGVLLLSLVITLYCKRGRKKLLYIFKQPFMRPVQTTQEEDGCSCRFPEEEEGGCELRVKFSRSADAPAYKQGQNQLYNELNLGRREEYDVLDKRRGRDPEMGGKPRRKNPQEGLYNELQKDKMAEAYSEIGMKGERRRGKGHDGLYQGLSTATKDTYDALHMQALPPR
For the molecule B4, the Cell killing EC50; KMS11-luc is 0.68 not printed; the JNL binding assay, ratio to K562; K562-BCMA came to 1.59; the JNL binding assay, ratio to K562; NCI-H929 came out at 1.99; the JNL binding assay, ratio to K562; RPMI 8226 was determined as 1.54. Further, the Proliferation, CD3 ratio to no target; K562-BCMA was 1.51; the Proliferation, CD3 ratio to no target; KMS11-luc amounted to 1.66; the Proliferation, CD3 ratio to no target; NCI-H929 was 4.63; the Proliferation, CD3 ratio to no target; RPMI 8226 is 2.5. Further, the Proliferation, CD4 ratio to no target; K562-BCMA was found to be 1.59; the Proliferation, CD4 ratio to no target; KMS11-luc turned out to be 1.49; the Proliferation, CD4 ratio to no target; NCI-H929 was determined as 4.45; the Proliferation, CD4 ratio to no target; RPMI 8226 was 2.24. The Proliferation, CD8 ratio to no target; K562-BCMA was 1.43; the Proliferation, CD8 ratio to no target; KMS11-luc is 1.83; the Proliferation, CD8 ratio to no target; NCI-H929 turned out to be 4.79; the Proliferation, CD8 ratio to no target; RPMI 8226 was 2.76.
